Measurements published in patent publication US20250333515A1.

Assays:
[1] = biological target: biotinylated recombinant human CLL-1 extracellular domain protein, isoform with glutamine at amino acid position 244 (human) (UniProt Q5QGZ9); experiment: Blitz (CLL-1-Q244)
[2] = biological target: biotinylated recombinant human CLL-1 extracellular domain protein, isoform with glutamine at amino acid position 244 (human) (UniProt Q5QGZ9); experiment: BLItz, 1:1 model (Q244 per FIG. 12B)
[3] = biological target: biotinylated recombinant human CLL-1 extracellular domain protein, isoform with glutamine at amino acid position 244 (human) (UniProt Q5QGZ9); experiment: Exp 2 (= Blitz, CLL-1-Q244 of FIG. 12B)
[4] = biological target: biotinylated recombinant human CLL-1 extracellular domain protein, isoform with lysine at amino acid position 244 (human) (UniProt Q5QGZ9); experiment: Octet (CLL-1-K244); variant: Both
[5] = biological target: biotinylated recombinant human CLL-1 extracellular domain protein, isoform with lysine at amino acid position 244 (human) (UniProt Q5QGZ9); experiment: Exp 1 (= Octet, CLL-1-K244 of FIG. 12B)
[6] = biological target: biotinylated recombinant human CLL-1 extracellular domain protein, isoform with lysine at amino acid position 244 (human) (UniProt Q5QGZ9); experiment: EC50 table, CLL-1 K244; reciprocals of the ELISA bars of FIG. 8B
[7] = biological target: biotinylated recombinant human CLL-1 extracellular domain protein, isoform with glutamine at amino acid position 244 (human) (UniProt Q5QGZ9); experiment: EC50 table, CLL-1 Q244; reciprocals of the ELISA bars of FIG. 8B
[8] = biological target: biotinylated recombinant human CLL-1 extracellular domain protein, isoform with lysine at amino acid position 244 (human) (UniProt Q5QGZ9); experiment: Octet (CLL-1-K244); variant column says Only Q
[9] = biological target: biotinylated recombinant human CLL-1 extracellular domain protein, isoform with lysine at amino acid position 244 (human) (UniProt Q5QGZ9); experiment: Octet (CLL-1-K244); variant column: Q>K

Sequence of biotinylated recombinant human CLL-1 extracellular domain protein, isoform with lysine at amino acid position 244 (human) (Q5QGZ9 65-265): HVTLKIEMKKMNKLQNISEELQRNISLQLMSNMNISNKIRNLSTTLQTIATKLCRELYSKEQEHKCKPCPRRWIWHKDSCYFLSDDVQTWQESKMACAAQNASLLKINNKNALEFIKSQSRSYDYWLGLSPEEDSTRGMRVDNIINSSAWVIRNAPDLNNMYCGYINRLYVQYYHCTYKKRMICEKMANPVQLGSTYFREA
Sequence of biotinylated recombinant human CLL-1 extracellular domain protein, isoform with glutamine at amino acid position 244 (human) (Q5QGZ9 65-265): as above

Kd [1]	Kd [2]	koff [2]	kon [2]	Kd [3]	Kd [4]	Kd [5]	EC50 [6]	EC50 [7]	Kd [8]	Kd [9]	Binder
13 nM	13 nM	0.00057 s⁻¹	43000 M⁻¹ s⁻¹	13 nM							Anti-CLL-1 Binder Clone 4 (scFv, not shown: small tags and cut ends) scFv: QSVVTQPPSVSAAPGQKVTISCSGSSPNIGKNYVSWYQQLPGTAPKLLIYDNNKRPSGIPDRFSGSKSGTSATLGITGLQTGDEADYYCGTWDSSLSGYVFGTGTKVTVLGGGGSGGGGSGGGGSQVQLVESGGGVVQPGRSLRLSCAASGFTFSSYGMHWVRQAPGKGLEWVAFISHDGSNKYYADSVKGRSTISRDNSKSTLFLQMNSLRDEDTAVYFCAREGQLTTSWDFFDYWGHGTLVTVSS
14 nM	14 nM	0.00097 s⁻¹	69000 M⁻¹ s⁻¹	14 nM	1.74 nM	1.74 nM					Anti-CLL-1 Binder Clone 38 (scFv, not shown: small tags and cut ends) scFv: DIQMTQSPSTLSASVGDRVTITCRASQSISSWLAWYQQKPGKAPKLLIYTASSLQSGVPSRFSGSESGTDFTLTISSLQPEDFATYYCQQSYSTPLTFGGGTKVDIKGGGGSGGGGSGGGGSQVQLVQSGAEVKKPGASVKVSCKASGYTFTGYYMHWVRQAPGQGLEWMGWINPNSGGTNYAQKFQGRVTLTRDTSITTAYLELTSLTSDDTAVYYCARGDTGDFFDHWGQGTLVTVSS
21 nM	21 nM	0.0013 s⁻¹	62000 M⁻¹ s⁻¹	21 nM	2.61 nM	2.61 nM					Anti-CLL-1 Binder Clone 10 (scFv, not shown: small tags and cut ends) scFv: DIQMTQSPSFLSASVGDRVTITCRASQGISSYLAWYQQKPGKAPKLLIYSASSLQSGVPSRFSGSGSGTDFTLTISSLQPEDFATYYCQQSYNSPTFGQGTRLEIKGGGGSGGGGSGGGGSQVQLVQSGAEVKKPGASVKVSCKASGYTFTGYYMHWVRQAPGQGLEWMGWMNPNSGNTGYAQKFQGRVTMTRNTSISTAYLELTSLTSDDTAVYYCARGDTGDFFDHWGQGTLVTVSS
11 nM	11 nM	0.00029 s⁻¹	27000 M⁻¹ s⁻¹	11 nM	5.08 nM	5.08 nM					Anti-CLL-1 Binder Clone 6 (scFv, not shown: small tags and cut ends) scFv: QSVLTQPPSVSAAPGQKVSIFCSGGSSNIGKNYVSWYQQLPGTAPKLLIYENQHRPSGIPDRFSGSKSGTSATLGITGLQTGDEADYYCATWDDSLSAGVFGGGTELTVLGGGGSGGGGSGGGGSQLVQSGAEVRKPGESLKISCKGSGYSFTSYWIGWVRQMPGKGLEWMGFIYPGDSDTRYSPSFQGQVTISADKSISTAYLQRSSLKASDTAMYYCARLGGYSGYDSEVFYLDYWGQGTTVTVSS
							1.3 nM	1.3 nM			Anti-CLL-1 Binder Clone 97 (VHH) VHH: QVQLVQSGGGLVQPGGSLRLSCAASDFDFDDDSMDWVRQAPGKGLEWIGSVLHDGATYYNPSLKSRVTISRDNSKNTLYLQMNTLRAEDTATYYCTRSALYGDAAFDVWAQGTMVTVSS
							4.8 nM	4.8 nM			Anti-CLL-1 Binder Clone 101 (VHH) VHH: QVQLVQSGGGLVQPGGSLRLSCAASDFDFADDSMDWVRQAPGKALEWIGSIFYSGTTYYNPSLKSRVTISRDNSKNTLYLQMNTLRAEDTAVYYCTRSALYGDAAFDVWAQGTMVTVSS
							0.6 nM	0.59 nM			Anti-CLL-1 Binder Clone 100 (VHH) VHH: QVQLVQSGGGLVQPGGSLRLSCAASDFDFDDDSMDWVRQAPGKALEWIGSVSYSGQTFYNPSLKSRVTISRDNSKNTLYLQMNTLRAEDTAMYYCTRSALYGDAAFDVWAQGTMVTVSS
306 nM	306 nM	0.032 s⁻¹	100000 M⁻¹ s⁻¹	306 nM							Anti-CLL-1 Binder Clone 41 (scFv, not shown: small tags and cut ends) scFv: QSVLTQPASVSGSLGQSITISCTGTSRDVGGYNFVSWYQQHPGKAPKLIIFDVTTRPSGLSDRFSASKSGNTASLTISGLQAEDEADYFCGSYTASDTMLFGGGTKLTVLGGGGSGGGGSGGGGSQVQLLESGGGVVQPGRSLRLSCAASGFTFDDYAMHWVRQAPGKGLEWVSGISWNSGSIGYADSVKGRFTVSRDNSKNTLYQQMNGLRAEDTAVYYCAREGRPTAFDYWGQGTTVTVSS
14 nM	14 nM	0.00081 s⁻¹	58000 M⁻¹ s⁻¹	14 nM		8.35 nM			8.35 nM		Anti-CLL-1 Binder Clone 40 (scFv, not shown: small tags and cut ends) scFv: QSVLTQPPSVSAAPGQKVTISCSGSSSNIGNNYVSWYQQLPGTAPKLLIYDNNKRPSGIPDRFSGSESGTSATLGITGLQTGDEADYYCGTWDSSLSAWVFGGGTQLIILGGGGSGGGGSGGGGSQVQLQQSGPGLVKPSQTLSLTCAISGDSVSSNSAAWNWIRQSPSRGLEWLGRTHYRSKWYNDYAVSVKSRITISADTSKNQFSLQLNSVTPEDTAVYYCARDRYTVRPDAFDIWGQGTTVTVSS
							6.4 nM	6.4 nM			Anti-CLL-1 Binder Clone 96 (VHH) VHH: QVQLVQSGGGLVQPGGSLRLSCAASYFDFSYYEMSWVRQAPGKGLEWVSLMSGNGGSTYYADSVKGRFTISRDNSKNTLYLQMNTLRAEDTATYYCVAHSSTWFSWGQGTLVTVSS
							5.1 nM	5.3 nM			Anti-CLL-1 Binder Clone 95 (VHH) VHH: QVQLVQSGGGLVQPGGSLRLSCAASAFDFDDSSMDWVRQAPGKALEWIGSISYFGSTYYNPSLKSRVTISRDNSKNTLYLQMNTLRAEDTATYYCTRSALYGDAAFDVWAQGTTVTVS
45 nM	45 nM	0.0034 s⁻¹	76000 M⁻¹ s⁻¹	45 nM							Anti-CLL-1 Binder Clone 12 (scFv, not shown: small tags and cut ends) scFv: DIQMTQSPSSLSASVGDRVTITCQASQDISNYLNWYQQKPGKAPKLLIYDASNLETGVPSRFSGSGSGTDFTLTISSPQPEDLATYYCQQANSFPFTFGQGTKVEIKGGGGSGGGGSGGGGSQVQLVQSGAEVKKPGSSVKVSCKASGYSFTRNDITWVRQANGRGLEWLGRLNPNNGDTVYAEVFQGRVAMTRDTSTDTAYMELASLKSDDTAVYFCARGFWSFDVWGQGTMVTVSS
							12 nM	11 nM			Anti-CLL-1 Binder Clone 98 (VHH) VHH: QVQLVQSGGGLVQPGGSLRLSCAASDFYFDDYEMSWVRQAPGQRLEWVSLISSDGTTYYADSVKGRFTISRDNSKNTLYLQMNTLRAEDTALYYCVRTTDSWELDLWGRGTLVTVSS
							2.6 nM	2.5 nM			Anti-CLL-1 Binder Clone 102 (VHH) VHH: QVQLVQSGGGLVQPGGSLRLSCAASYFSFADYEMSWVRQAPGQRLEWVAVVSKDGNELYYADSVKGRFTISRDNSKNTLYLQMNTLRAEDTAVYYCVKDPYDFWSGYYSNWGQGTLVTVSS
33 nM	33 nM	0.0035 s⁻¹	110000 M⁻¹ s⁻¹	33 nM	5.68 nM	5.68 nM					Anti-CLL-1 Binder Clone 20 (VHH, not shown: small tags and cut ends) VHH: QVQLVQSGGGLVQPGGSLRLSCAASDFSFSYYEMSWVRQAPGKGLEWVSTISGSGDSTYYADSVKGRFTISRDNTKNTLYLQMNTLRAEDTATYYCMTDGETWGTHRYTVYWGQGALVTVSS
								90 nM			Anti-CLL-1 Binder Clone 94 (VHH) VHH: QVQLVQSGGGLVQPGGSLRLSCAASYFDFAAYDMDWVRQAPGQRLEWVAKISHDGSYSWYADSVKGRFTISRDNSKNTLYLQMNTLRAEDTAVYYCVRGEGGSERADYWGRGTLVTVSS
							93 nM	88 nM			Anti-CLL-1 Binder Clone 99 (VHH) VHH: QVQLVQSGGGLVQPGGSLRLSCAASAFDFYSYEMSWVRQAPGKGLEWVSYIGPIGTDIGYADSVKGRFTISRDNSKNTLYLQMNTLRAEDTAMYYCAKDPYYDSTGLTSYWGQGTLVTVSS
70 nM	70 nM	0.0033 s⁻¹	47000 M⁻¹ s⁻¹	70 nM							Anti-CLL-1 Binder Clone 2 (scFv, not shown: small tags and cut ends) scFv: QSVLTQPLSVSVALGQTARITCGGNNIGSKNVHWYQQKAGQAPVLVIQRDSNRPSGIPERFSGSNSGNTATLTISRAQAGDEADYFCQVWDSNTYVFGTGTKLTVLGGGGSGGGGSGGGGSEVQLVESGGGLVKPGGSLRLSCAASGFTFSDYYMSWIRQAPGKGLEWVSYISSSGSTIYYADSVKGRFTISRDNAKNSLYLQMNSLRDEDTAVYYCARQSAEIVGAFDHWGQGTMVTVSS
41 nM	41 nM	0.0023 s⁻¹	59000 M⁻¹ s⁻¹	41 nM		16.6 nM				16.6 nM	Anti-CLL-1 Binder Clone 11 (scFv, not shown: small tags and cut ends) scFv: QSVLTQPASVSGSPGQSITISCTGTSSDVGASNSVSWYQRHPGKPPKLMIYDVSNRPSGISNRFSGSKSGNTASLTISGLQSEDEADYYCSSYTGSSTFVVFGGGTQLIILGGGGSGGGGSGGGGSEVQLVESGGGVVQPGGSLRLSCAASGFTFSSYWMSWVRQAPGKGLEWVANIRQDGSEKYYVDSVKGRFTISRDNAKNSLYLQMNSLRAEDAAVYYCAREQDTAMVAFDYWGQGTLVTVSS
